Substitutions are numbered along the chain they refer to. Names may count otherwise.
Columns and labels:
[1] = target: T1, FcγRIIa R (extracellular domain, C-terminal His tag) (human, UniProt P12318 34-217); test: SPR (Biacore), antibody captured on antigen-peptide chip, FcγR as analyte; relative binding amount
T1 construct: extracellular domain; also called FcgRIIa R type; 2aR; not shown: His tag attached to the C terminus
T1 sequence (looked up): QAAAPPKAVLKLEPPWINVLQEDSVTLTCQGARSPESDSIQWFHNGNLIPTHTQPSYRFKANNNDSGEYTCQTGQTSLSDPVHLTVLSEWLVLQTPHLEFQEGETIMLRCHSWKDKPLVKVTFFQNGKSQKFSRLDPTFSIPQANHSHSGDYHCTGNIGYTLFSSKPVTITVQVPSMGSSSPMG
Description: (§1) The heterodimerized antibodies He Abs in which one of the H chains was introduced with an alteration were assayed for their binding activities to each activating FcγR and inhibitory FcγR according to the method described in Example 4. […] The activating FcγRs in FIGS. 26, 27, 28, and 29 are FcγRIa, FcγRIIa (R), FcγRIIa (H), and FcγRIIIa, respectively.
(§2) Analysis of interaction between objective antibody and the FcγR was carried out using Biacore T100 (GE Healthcare). HBS-EP+ (GE Healthcare) was used as the running buffer, and the measurement temperature was set to 25° C. Chips produced by immobilizing the antigen peptide by the amine coupling method to a Series S Sencor Chip CM5 (GE Healthcare), or alternatively, chips produced by allowing preliminarily biotinylated antigen peptides to interact with and immobilize onto a Series S Sensor Chip SA (certified) (GE Healthcare) were used. Antibodies of interest were captured onto an antigen peptide-immobilized chip, and allowed to interact to each FcγR diluted with running buffer. To regenerate and repeatedly use the chip, the antibodies captured on the chip were washed off by reacting 10 mM glycine-HCl, pH 1.5.

[2] = target: T2, FcγRIIb (extracellular domain, C-terminal His tag) (human, UniProt P31994 43-217); test: as above
T2 construct: extracellular domain; also called FcgRIIb; 2b; not shown: His tag attached to the C terminus
T2 sequence (looked up): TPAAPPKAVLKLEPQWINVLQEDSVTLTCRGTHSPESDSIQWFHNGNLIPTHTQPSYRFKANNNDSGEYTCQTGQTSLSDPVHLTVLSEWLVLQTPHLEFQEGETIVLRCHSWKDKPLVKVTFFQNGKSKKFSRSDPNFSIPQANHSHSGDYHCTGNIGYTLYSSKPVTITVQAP
Description: as §1, §2

[3] = target: T3, FcγRIIa H (FcγRIIa type H, His at position 131), extracellular domain with C-terminal His tag (human, UniProt P12318 34-217); test: SPR (Biacore), antibody captured on antigen-peptide chip, FcγR as analyte; GpH7-A5/GpH7-B3/GpL16-k0 = 100
T3 construct: extracellular domain; also called 2aH; FcgRIIa H; not shown: His tag at the C terminus
T3 sequence (looked up): T1 sequence (looked up) with R134H
Description: as §1, §2

[4] = target: T4, FcγRIIb, extracellular domain with C-terminal His tag (human, UniProt P31994 43-217); test: as above
T4 construct: extracellular domain; also called 2b; FcgRIIb; not shown: His tag at the C terminus
T4 sequence (looked up): T2 sequence (looked up)
Description: as §1, §2

[5] = target: T5, FcγRIIIa extracellular domain with C-terminal His tag (human, UniProt P08637 17-208); test: SPR (Biacore), antibody captured on antigen peptide chip, FcγR as analyte; relative binding amount
T5 construct: extracellular domain; also called FcgRIIIa; 3a; not shown: His tag at the C terminus
Description: as §2
(§3) The FcγR-binding activity of each antibody was assessed primarily using as an indicator the FcγR-binding activity and dissociation constant for FcγR.

[6] = target: T6, FcγRIIb extracellular domain with C-terminal His tag (human, UniProt P31994 43-217); test: as above
T6 construct: extracellular domain; also called FcgRIIb; 2b; not shown: His tag at the C terminus
T6 sequence (looked up): T2 sequence (looked up)
Description: as §2, §3

T5 sequence (P08637 17-208): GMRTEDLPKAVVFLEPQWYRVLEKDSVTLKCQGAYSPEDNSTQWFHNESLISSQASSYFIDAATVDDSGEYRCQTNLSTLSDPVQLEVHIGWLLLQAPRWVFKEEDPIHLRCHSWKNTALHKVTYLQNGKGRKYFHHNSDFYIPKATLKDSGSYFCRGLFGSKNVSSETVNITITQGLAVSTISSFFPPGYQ

B1: GpH7-A5/GpH7-B3 variant S337_12R/GpL16-k0 (antibody, human IgG1, kappa)
heavy 1: not shown
heavy 2: not shown
light: DIVMTQSPLSLPVTPGEPASISCQASESLVHSNRNTYLHWYLQKPGQSPQLLIYKVSNRFSGVPDRFSGSGSGTDFTLKISRVEAEDVGVYYCSQNTHVPPTFGQGTKVEIERTVAAPSVFIFPPSDEQLKSGTASVVCLLNNFYPREAKVQWKVDNALQSGNSQESVTEQDSKDSTYSLSSTLTLSKADYEKHKVYACEVTHQGLSSPVTKSFNRGEC
notes: Heterodimerized anti-glypican-3 IgG1; alteration in only one H chain (GpH7-B3 side); also called He Ab
He/Con_2aR [1]: 107 % of control (GpH7-A5/GpH7-B3/GpL16-k0 = 100) | He/Con_2b [2]: 99.5 % of control (GpH7-A5/GpH7-B3/GpL16-k0 = 100)

B2: GpH7-A5/GpH7-B3 variant H268_03V/GpL16-k0 (antibody, human IgG1, kappa)
heavy 1: not shown
heavy 2: not shown
light: B1 light
notes: Heterodimerized IgG1 (He Ab); mutation only in the GpH7-B3 chain; also called He Ab H268V
He/Con_2aH (relative binding activity) [3]: 99.2 % of control | He/Con_2b (relative binding activity) [4]: 114 % of control

B3: GpH7-A5/GpH7-B3 variant A327_01G/GpL16-k0 (antibody, human IgG1, kappa)
heavy 1: not shown
heavy 2: not shown
light: B1 light
notes: Heterodimerized anti-glypican-3 IgG1; the substitution stands in the GpH7-B3 chain only; also called He Ab
He/Con_3a [5]: 72.4 % of GpH7-A5/GpH7-B3/GpL16-k0 (=100) | He/Con_2b [6]: 116 % of GpH7-A5/GpH7-B3/GpL16-k0 (=100)

B4: GpH7-A5/GpH7-B3 variant T335_01G/GpL16-k0 (antibody, human IgG1, kappa)
heavy 1: not shown
heavy 2: not shown
light: B1 light
notes: as for B1
He/Con_2aR [1]: 104 % of control (GpH7-A5/GpH7-B3/GpL16-k0 = 100) | He/Con_2b [2]: 96.7 % of control (GpH7-A5/GpH7-B3/GpL16-k0 = 100)

B5: GpH7-A5/GpH7-B3 variant H268_05P/GpL16-k0 (antibody, human IgG1, kappa)
heavy 1: not shown
heavy 2: not shown
light: B1 light
notes: Heterodimerized IgG1 (He Ab); mutation only in the GpH7-B3 chain; also called He Ab H268P
He/Con_2aH (relative binding activity) [3]: 81.8 % of control | He/Con_2b (relative binding activity) [4]: 116 % of control

B6: GpH7-A5/GpH7-B3 variant K326_16H/GpL16-k0 (antibody, human IgG1, kappa)
heavy 1: not shown
heavy 2: not shown
light: B1 light
notes: as for B3
He/Con_3a [5]: 96.1 % of GpH7-A5/GpH7-B3/GpL16-k0 (=100) | He/Con_2b [6]: 119 % of GpH7-A5/GpH7-B3/GpL16-k0 (=100)

B7: GpH7-A5/GpH7-B3 variant H268_15Y/GpL16-k0 (antibody, human IgG1, kappa)
heavy 1: not shown
heavy 2: not shown
light: B1 light
notes: as for B3
He/Con_3a [5]: 97.5 % of GpH7-A5/GpH7-B3/GpL16-k0 (=100) | He/Con_2b [6]: 106 % of GpH7-A5/GpH7-B3/GpL16-k0 (=100)

B8: GpH7-A5/GpH7-B3 variant Y300_10E/GpL16-k0 (antibody, human IgG1, kappa)
heavy 1: not shown
heavy 2: not shown
light: B1 light
notes: Heterodimerized IgG1 (He Ab); mutation only in the GpH7-B3 chain; also called He Ab Y300E
He/Con_2aH (relative binding activity) [3]: 97.2 % of control | He/Con_2b (relative binding activity) [4]: 134 % of control

B9: GpH7-A5/GpH7-B3 variant K326_03V/GpL16-k0 (antibody, human IgG1, kappa)
heavy 1: not shown
heavy 2: not shown
light: B1 light
notes: Heterodimerized IgG1 (He Ab); mutation only in the GpH7-B3 chain; also called He Ab K326V
He/Con_2aH (relative binding activity) [3]: 97 % of control | He/Con_2b (relative binding activity) [4]: 175 % of control

B10: GpH7-A5/GpH7-B3 variant N325_01G/GpL16-k0 (antibody, human IgG1, kappa)
heavy 1: not shown
heavy 2: not shown
light: B1 light
notes: as for B3
He/Con_3a [5]: 28 % of GpH7-A5/GpH7-B3/GpL16-k0 (=100) | He/Con_2b [6]: 101 % of GpH7-A5/GpH7-B3/GpL16-k0 (=100)

B11: GpH7-A5/GpH7-B3 variant T335_06M/GpL16-k0 (antibody, human IgG1, kappa)
heavy 1: not shown
heavy 2: not shown
light: B1 light
notes: as for B1
He/Con_2aR [1]: 105 % of control (GpH7-A5/GpH7-B3/GpL16-k0 = 100) | He/Con_2b [2]: 99.4 % of control (GpH7-A5/GpH7-B3/GpL16-k0 = 100)

B12: GpH7-A5/GpH7-B3 variant S298_08L/GpL16-k0 (antibody, human IgG1, kappa)
heavy 1: not shown
heavy 2: not shown
light: B1 light
notes: Heterodimerized IgG1 (He Ab); mutation only in the GpH7-B3 chain; also called He Ab S298L
He/Con_2aH (relative binding activity) [3]: 85 % of control | He/Con_2b (relative binding activity) [4]: 108 % of control

B13: GpH7-A5/GpH7-B3 variant K326_04F/GpL16-k0 (antibody, human IgG1, kappa)
heavy 1: not shown
heavy 2: not shown
light: B1 light
notes: Heterodimerized IgG1 (He Ab); mutation only in the GpH7-B3 chain; also called He Ab K326F
He/Con_2aH (relative binding activity) [3]: 97 % of control | He/Con_2b (relative binding activity) [4]: 155 % of control

B14: GpH7-A5/GpH7-B3 variant P271_09D/GpL16-k0 (antibody, human IgG1, kappa)
heavy 1: not shown
heavy 2: not shown
light: B1 light
notes: Heterodimerized IgG1 (He Ab); mutation only in the GpH7-B3 chain; also called He Ab P271D
He/Con_2aH (relative binding activity) [3]: 70.1 % of control | He/Con_2b (relative binding activity) [4]: 120 % of control

B15: GpH7-A5/GpH7-B3 variant P271_08L/GpL16-k0 (antibody, human IgG1, kappa)
heavy 1: not shown
heavy 2: not shown
light: B1 light
notes: as for B3
He/Con_3a [5]: 71 % of GpH7-A5/GpH7-B3/GpL16-k0 (=100) | He/Con_2b [6]: 103 % of GpH7-A5/GpH7-B3/GpL16-k0 (=100)

B16: GpH7-A5/GpH7-B3 variant Y296_20W/GpL16-k0 (antibody, human IgG1, kappa)
heavy 1: not shown
heavy 2: not shown
light: B1 light
notes: Heterodimerized IgG1 (He Ab); mutation only in the GpH7-B3 chain; also called He Ab Y296W
He/Con_2aH (relative binding activity) [3]: 97.6 % of control | He/Con_2b (relative binding activity) [4]: 103 % of control

B17: GpH7-A5/GpH7-B3 variant H268_20W/GpL16-k0 (antibody, human IgG1, kappa)
heavy 1: not shown
heavy 2: not shown
light: B1 light
notes: Heterodimerized IgG1 (He Ab); mutation only in the GpH7-B3 chain; also called He Ab H268W
He/Con_2aH (relative binding activity) [3]: 95.8 % of control | He/Con_2b (relative binding activity) [4]: 111 % of control

Reference: US20180155451A1 (published 2018)
